Four molecules from patent US20230407373A1 (priority 2020, published 2023) can be followed below.

Read-outs that look alike come from different tables or passages of the source.

Common to all, as to assay type: binding
One test deals with SARS-CoV-2 gRNA. The following applies: […]; LC-MS/MS; Probe I sample (first 199 lines of Table 2).
For test [1], the system named is SARS-CoV-2 gRNA and sgRNAs. The conditions noted are these: for target (unweighted spectral count in RNP capture): Probe II capture, LC-MS/MS LFQ; for background (unweighted spectral count in control): no-probe control pull-down, used as background for Probe II.
A further test deals with gRNA of HCoV-OC43.
The test system of a further test is HCoV-OC43 gRNA and sgRNA.
Where [2] appears, read: type n_48_v: 48 hours post-infection, infected cells, OC43 Probe I, unweighted spectral count.
The mark [3] stands for this setting: type n_48_v: 48 hours post-infection, no-probe control on infected cells.
Setting [4] is: 36 hpi, type n_36_v, tested against no-probe control, FDR<10%.
[5] abbreviates: OC43 Probe II, 12 hpi (type n_12_v), infected cells, tested against no-probe control.
Setting [6] is: OC43 Probe II, 24 hpi (type n_24_v), infected cells, tested against no-probe control.
Setting [7] is: type n_48_v, 48 hpi, OC43 Probe II capture on infected cells.
Setting [8] is: type n_48_v, 48 hpi, no-probe control on infected cells.

B1: HNRNPH3 (protein, UniProt P31942 1-346, looked up)
Heterogeneous nuclear …: MDWVMKHNGPNDASDGTVRLRGLPFGCSKEEIVQFFQGLEIVPNGITLTMDYQGRSTGEAFVQFASKEIAENALGKHKERIGHRYIEIFRSSRSEIKGFYDPPRRLLGQRPGPYDRPIGGRGGYYGAGRGSMYDRMRRGGDGYDGGYGGFDDYGGYNNYGYGNDGFDDRMRDGRGMGGHGYGGAGDASSGFHGGHFVHMRGLPFRATENDIANFFSPLNPIRVHIDIGADGRATGEADVEFVTHEDAVAAMSKDKNNMQHRYIELFLNSTPGGGSGMGGSGMGGYGRDGMDNQGGYGSVGRMGMGNNYSGGYGTPDGLGGYGRGGGGSGGYYGQGGMSGGGWRGMY
With B1, the “target (unweighted spectral count of the protein in the RNP capture)” value in the test with SARS-CoV-2 gRNA is on record as 23. Moreover, the “target (unweighted spectral count in RNP capture)” value in test [1] is 17. The “background (unweighted spectral count in control)” value in test [1] turned out to be 1. Also, in the test on gRNA of HCoV-OC43 (setting [2]), the “target (spectral count, OC43 Probe I RNP capture)” value came to 16. Also, the “background (spectral count, no-probe control)” value with gRNA of HCoV-OC43 (setting [3]) is 2. In addition, the “target (unweighted spectral count, OC43 Probe II capture)” value in the test with HCoV-OC43 gRNA and sgRNA (setting [4]) is recorded as 18. In addition, the “target (unweighted spectral count)” value came out at 6 with HCoV-OC43 gRNA and sgRNA (setting [5]); 15 with HCoV-OC43 gRNA and sgRNA (setting [6]). Further, the “target (unweighted spectral count, OC43 Probe II)” value in the test with HCoV-OC43 gRNA and sgRNA (setting [7]) is recorded as 21. Also, in the test with HCoV-OC43 gRNA and sgRNA (setting [8]), the “background (unweighted spectral count, no-probe control)” value amounted to 2.

B2: PURA (protein, UniProt Q00577 2-322, looked up)
Transcriptional activator …: ADRDSGSEQGGAALGSGGSLGHPGSGSGSGGGGGGGGGGGGSGGGGGGAPGGLQHETQELASKRVDIQNKRFYLDVKQNAKGRFLKIAEVGAGGNKSRLTLSMSVAVEFRDYLGDFIEHYAQLGPSQPPDLAQAQDEPRRALKSEFLVRENRKYYMDLKENQRGRFLRIRQTVNRGPGLGSTQGQTIALPAQGLIEFRDALAKLIDDYGVEEEPAELPEGTSLTVDNKRFFFDVGSNKYGVFMRVSEVKPTYRNSITVPYKVWAKFGHTFCKYSEEMKKIQEKQREKRAACEQLHQQQQQQQEETAAATLLLQGEEEGEED
B2: the “target (unweighted spectral count of the protein in the RNP capture)” value with SARS-CoV-2 gRNA is listed as 15. Besides, in test [1], the “target (unweighted spectral count in RNP capture)” value amounted to 19 and the “background (unweighted spectral count in control)” value is 1. The “target (spectral count, OC43 Probe I RNP capture)” value in the test on gRNA of HCoV-OC43 (setting [2]) is on record as 7. Moreover, in the test on gRNA of HCoV-OC43 (setting [3]), the “background (spectral count, no-probe control)” value was found to be 1. Also, the “target (unweighted spectral count, OC43 Probe II capture)” value in the test with HCoV-OC43 gRNA and sgRNA (setting [4]) was determined as 5. Also, the “target (unweighted spectral count, OC43 Probe II)” value with HCoV-OC43 gRNA and sgRNA (setting [7]) was found to be 12. For the same molecule, the “background (unweighted spectral count, no-probe control)” value with HCoV-OC43 gRNA and sgRNA (setting [8]) is given as 1.

B3: SRSF3 (protein, UniProt P84103 1-164, looked up)
Serine/arginine-rich splicing …: MHRDSCPLDCKVYVGNLGNNGNKTELERAFGYYGPLRSVWVARNPPGFAFVEFEDPRDAADAVRELDGRTLCGCRVRVELSNGEKRSRNRGPPPSWGRRPRDDYRRRSPPPRRRSPRRRSFSRSRSRSLSRDRRRERSLSRERNHKPSRSFSRSRSRSRSNERK
Regarding B3, the “target (unweighted spectral count of the protein in the RNP capture)” value in the test on SARS-CoV-2 gRNA is 16. Besides, in test [1], the “target (unweighted spectral count in RNP capture)” value was 20 and the “background (unweighted spectral count in control)” value came to 1. Moreover, in the test on gRNA of HCoV-OC43, the “background (spectral count, no-probe control)” value came to 3 and the “target (spectral count, OC43 Probe I RNP capture)” value is given as 14. In the test with HCoV-OC43 gRNA and sgRNA, the “background (unweighted spectral count, no-probe control)” value came to 3; the “target (unweighted spectral count)” value is reported as 6; the “target (unweighted spectral count, OC43 Probe II capture)” value is listed as 18; the “target (unweighted spectral count, OC43 Probe II)” value is 16.

B4: ILF3: host protein, UniProt Q12906 (protein, UniProt Q12906 1-894, looked up)
Interleukin enhancer-binding …: MRPMRIFVNDDRHVMAKHSSVYPTQEELEAVQNMVSHTERALKAVSDWIDEQEKGSSEQAESDNMDVPPEDDSKEGAGEQKTEHMTRTLRGVMRVGLVAKGLLLKGDLDLELVLLCKEKPTTALLDKVADNLAIQLAAVTEDKYEILQSVDDAAIVIKNTKEPPLSLTIHLTSPVVREEMEKVLAGETLSVNDPPDVLDRQKCLAALASLRHAKWFQARANGLKSCVIVIRVLRDLCTRVPTWGPLRGWPLELLCEKSIGTANRPMGAGEALRRVLECLASGIVMPDGSGIYDPCEKEATDAIGHLDRQQREDITQSAQHALRLAAFGQLHKVLGMDPLPSKMPKKPKNENPVDYTVQIPPSTTYAITPMKRPMEEDGEEKSPSKKKKKIQKKEEKAEPPQAMNALMRLNQLKPGLQYKLVSQTGPVHAPIFTMSVEVDGNSFEASGPSKKTAKLHVAVKVLQDMGLPTGAEGRDSSKGEDSAEETEAKPAVVAPAPVVEAVSTPSAAFPSDATAEQGPILTKHGKNPVMELNEKRRGLKYELISETGGSHDKRFVMEVEVDGQKFQGAGSNKKVAKAYAALAALEKLFPDTPLALDANKKKRAPVPVRGGPKFAAKPHNPGFGMGGPMHNEVPPPPNLRGRGRGGSIRGRGRGRGFGGANHGGYMNAGAGYGSYGYGGNSATAGYSQFYSNGGHSGNASGGGGGGGGGSSGYGSYYQGDNYNSPVPPKHAGKKQPHGGQQKPSYGSGYQSHQGQQQSYNQSPYSNYGPPQGKQKGYNHGQGSYSYSNSYNSPGGGGGSDYNYESKFNYSGSGGRSGGNSYGSGGASYNPGSHGGYGGGSGGGSSYQGKQGGYSQSNYNSPGSGQNYSGPPSSYQSSQGGYGRNADHSMNYQYR
Take B4: in the test with SARS-CoV-2 gRNA, the “target (unweighted spectral count of the protein in the RNP capture)” value turned out to be 15. Besides, in test [1], the “target (unweighted spectral count in RNP capture)” value is recorded as 15. In addition, the “background (unweighted spectral count in control)” value in test [1] is 1. For the same molecule, the “target (spectral count)” value in the test with gRNA of HCoV-OC43 (type g_36_m, HCoV-OC43-infected HCT-8 cells, 36 hpi, Probe I) is 39; in the test on HCoV-OC43 gRNA and sgRNA (type s_36_m, HCoV-OC43-infected HCT-8 cells, 36 hpi, Probe II) it was 31. The “background (spectral count)” value is reported as 3 with gRNA of HCoV-OC43 (type g_36_m, uninfected-probe control, 36 hpi, Probe I); 3 in the test on HCoV-OC43 gRNA and sgRNA (type s_36_m, uninfected-probe control, 36 hpi, Probe II). The “target (spectral count, OC43 Probe I RNP capture)” value in the test with gRNA of HCoV-OC43 (setting [2]) came to 38. Moreover, the “background (spectral count, no-probe control)” value with gRNA of HCoV-OC43 (setting [3]) came to 2. Besides, in the test with HCoV-OC43 gRNA and sgRNA (setting [4]), the “target (unweighted spectral count, OC43 Probe II capture)” value is reported as 31. In addition, the “target (unweighted spectral count)” value is listed as 7 with HCoV-OC43 gRNA and sgRNA (setting [5]); 14 with HCoV-OC43 gRNA and sgRNA (setting [6]). For the same molecule, the “target (unweighted spectral count, OC43 Probe II)” value with HCoV-OC43 gRNA and sgRNA (setting [7]) turned out to be 36. Moreover, in the test on HCoV-OC43 gRNA and sgRNA (setting [8]), the “background (unweighted spectral count, no-probe control)” value stood at 2.
